PMC7319273 (2020)

Biological target: SARS-CoV-2 Spike protein extracellular domain (S-ECD), as used in ELISA and BLI (SARS-CoV-2, UniProt P0DTC2 14-1208)
Assay: BLI

B1: 4A8 (human monoclonal antibody) (antibody, V domains shown)
VH: EVQLVESGAEVKKPGASVKVSCKVSGYTLTELSMHWVRQAPGKGLEWMGGFDPEDGETMYAQKFQGRVTMTEDTSTDTAYMELSSLRSEDTAVYYCATSTAVAGTPDLFDYYYGMDVWGQGTTVTVSS
VL: EIVMTQSPLSSPVTLGQPASISCRSSQSLVHSDGNTYLSWLQQRPGQPPRLLIYKISNRFSGVPDRFSGSGAGTDFTLKISRVEAEDVGVYYCTQATQFPYTFGQGTKVDIK
For B1, the Kd was 0.996 nM.

B2: 2M-10B11 (human monoclonal antibody) (antibody, V domains shown)
VH: EVQLVESGGGLVQPGGSLRLSCAASGFTVSSNYMSWVRQAPGKGLEWVSVIYSGGSTYYADSVKGRFTISRDNSKNTLYLQMNSLRAEDTAVYYCARATWLRGVMDVWGQGTTVTVSS
VL: QSALTQPHSVSESPGKTVTISCTGSSGSIASNYVQWYQQRPGSAPTTVIYEDNQRPSGVPDRFSGSIDSSSNSASLTISGLKTEDEADYYCQSYDSSNHWVFGGGTKLTVL
B2 showed a Kd of 0.342 nM.
